{"source": "paper PMC7804450", "target": "T1, tuberous sclerosis complex 1 (TSC1), human, subunit of the purified TSC complex (human), Q92574", "T1 chain": "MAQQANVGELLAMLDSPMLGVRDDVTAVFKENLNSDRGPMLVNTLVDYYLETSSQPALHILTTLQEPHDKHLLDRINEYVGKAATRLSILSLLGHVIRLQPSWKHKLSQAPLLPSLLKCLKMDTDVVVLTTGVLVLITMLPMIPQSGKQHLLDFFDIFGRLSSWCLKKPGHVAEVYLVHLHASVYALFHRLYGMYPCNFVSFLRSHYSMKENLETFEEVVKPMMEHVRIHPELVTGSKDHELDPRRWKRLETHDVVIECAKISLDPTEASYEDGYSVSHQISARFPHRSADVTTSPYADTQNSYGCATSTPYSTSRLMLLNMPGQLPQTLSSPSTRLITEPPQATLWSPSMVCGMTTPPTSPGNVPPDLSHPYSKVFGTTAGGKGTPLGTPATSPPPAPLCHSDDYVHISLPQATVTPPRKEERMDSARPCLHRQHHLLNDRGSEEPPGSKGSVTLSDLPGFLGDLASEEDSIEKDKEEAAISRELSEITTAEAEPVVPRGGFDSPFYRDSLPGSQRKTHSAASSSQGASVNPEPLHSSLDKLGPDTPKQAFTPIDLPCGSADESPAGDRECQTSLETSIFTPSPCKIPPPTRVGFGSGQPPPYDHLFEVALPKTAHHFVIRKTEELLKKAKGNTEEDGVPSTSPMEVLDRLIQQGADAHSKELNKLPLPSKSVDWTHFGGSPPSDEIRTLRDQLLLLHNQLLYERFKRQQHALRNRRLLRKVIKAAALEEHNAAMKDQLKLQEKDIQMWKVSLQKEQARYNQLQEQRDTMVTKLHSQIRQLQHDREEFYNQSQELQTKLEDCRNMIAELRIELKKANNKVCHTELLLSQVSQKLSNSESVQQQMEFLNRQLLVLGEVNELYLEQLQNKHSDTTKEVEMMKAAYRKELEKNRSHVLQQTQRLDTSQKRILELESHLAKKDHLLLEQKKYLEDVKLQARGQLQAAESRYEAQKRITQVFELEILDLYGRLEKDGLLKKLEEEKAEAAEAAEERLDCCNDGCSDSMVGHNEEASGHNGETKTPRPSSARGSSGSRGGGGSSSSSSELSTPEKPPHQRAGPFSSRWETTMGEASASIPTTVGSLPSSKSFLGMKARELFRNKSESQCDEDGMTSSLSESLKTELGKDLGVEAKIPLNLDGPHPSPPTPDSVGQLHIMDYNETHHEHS", "assay": "cryo-EM structure; human TSC complex (TSC1, TSC2, TBC1D7) co-expressed in Expi293F, purified, cross-linked by Grafix (glutaraldehyde); single particle reconstruction, 4.4 Å overall, core 3.6 Å, wings 3.9 and 4.1 Å", "details": "remark: other sources report otherwise"}
{"binder": "tuberous sclerosis complex 1 (TSC1), human, subunit of the purified TSC complex, Q92574 1-1164 (natural protein) MAQQANVGELLAMLDSPMLGVRDDVTAVFKENLNSDRGPMLVNTLVDYYLETSSQPALHILTTLQEPHDKHLLDRINEYVGKAATRLSILSLLGHVIRLQPSWKHKLSQAPLLPSLLKCLKMDTDVVVLTTGVLVLITMLPMIPQSGKQHLLDFFDIFGRLSSWCLKKPGHVAEVYLVHLHASVYALFHRLYGMYPCNFVSFLRSHYSMKENLETFEEVVKPMMEHVRIHPELVTGSKDHELDPRRWKRLETHDVVIECAKISLDPTEASYEDGYSVSHQISARFPHRSADVTTSPYADTQNSYGCATSTPYSTSRLMLLNMPGQLPQTLSSPSTRLITEPPQATLWSPSMVCGMTTPPTSPGNVPPDLSHPYSKVFGTTAGGKGTPLGTPATSPPPAPLCHSDDYVHISLPQATVTPPRKEERMDSARPCLHRQHHLLNDRGSEEPPGSKGSVTLSDLPGFLGDLASEEDSIEKDKEEAAISRELSEITTAEAEPVVPRGGFDSPFYRDSLPGSQRKTHSAASSSQGASVNPEPLHSSLDKLGPDTPKQAFTPIDLPCGSADESPAGDRECQTSLETSIFTPSPCKIPPPTRVGFGSGQPPPYDHLFEVALPKTAHHFVIRKTEELLKKAKGNTEEDGVPSTSPMEVLDRLIQQGADAHSKELNKLPLPSKSVDWTHFGGSPPSDEIRTLRDQLLLLHNQLLYERFKRQQHALRNRRLLRKVIKAAALEEHNAAMKDQLKLQEKDIQMWKVSLQKEQARYNQLQEQRDTMVTKLHSQIRQLQHDREEFYNQSQELQTKLEDCRNMIAELRIELKKANNKVCHTELLLSQVSQKLSNSESVQQQMEFLNRQLLVLGEVNELYLEQLQNKHSDTTKEVEMMKAAYRKELEKNRSHVLQQTQRLDTSQKRILELESHLAKKDHLLLEQKKYLEDVKLQARGQLQAAESRYEAQKRITQVFELEILDLYGRLEKDGLLKKLEEEKAEAAEAAEERLDCCNDGCSDSMVGHNEEASGHNGETKTPRPSSARGSSGSRGGGGSSSSSSELSTPEKPPHQRAGPFSSRWETTMGEASASIPTTVGSLPSSKSFLGMKARELFRNKSESQCDEDGMTSSLSESLKTELGKDLGVEAKIPLNLDGPHPSPPTPDSVGQLHIMDYNETHHEHS", "values": [{"measurement": "stoichiometry N", "result": 2}]}
